± gives the standard deviation of the averaged measurements.
System: Saccharomyces cerevisiae
Assay: protein stability index of tFT-peptide fusion (C-terminal peptide) (PSI (0-1 scale)); higher = more stable (slower turnover)
Settings: genetic background: wild type; temperature: 30 C
Experimental: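 Multiplexed protein stability (MPS) profiling in S. cerevisiae. Random 12-aa peptides (tFT-X12 library) are fused to the C-terminus of a sfGFP-mCherry tandem fluorescent timer, after mCherry and a GGGS linker. Cells are FACS-sorted into 8 mCherry/sfGFP bins and deep-sequenced. The protein stability index (PSI) is the read-weighted bin average, scaled from 0 (unstable) to 1 (stable). Only peptides with >10 reads are reported; cells were grown at 30 °C in SC-His with glucose.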
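Also: PSI is a weighted mean of sequencing reads over stability bins, variants kept only with over 10 reads, mCherry proximal and sfGFP distal, peptide attached via GGGS linker.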

## YRPGGDRMTGFV
  protein stability index: 0.713 ± 0.065

## DPLSPLPPPPPP
  protein stability index: 0.635 ± 0.14

## DYSTLFVSVADP
  protein stability index: 0.667 ± 0.0069

## LGGGNVGHSRIW
  protein stability index: 0.623 ± 0.073

## MLFWPPPSLRMP
  protein stability index: 0.701 ± 0.0083

## LLRVTVCELAYK
  protein stability index: 0.55 ± 0.018

## ASYVFVVEGGGG
  protein stability index: 0.609 ± 0.018

## ADRSVGSAACSP
  protein stability index: 0.72 ± 0.15

## ICSQLVVAWEGV
  protein stability index: 0.714

## CVLYQLPPAYSF
  protein stability index: 0.643 ± 0.029

## ACRTGSSLLHPI
  protein stability index: 0.706 ± 0.06

## PRIPPLRPPPPA
  protein stability index: 0.6649 ± 0.0047

## LACGWCVAVYRG
  protein stability index: 0.644 ± 0.049

## PAPPPSSPRSIH
  protein stability index: 0.674 ± 0.032

## LYWSGFCPVFWG
  protein stability index: 0.7164 ± 0.0027

## KKKKIKKNKKQL
  protein stability index: 0.684 ± 0.01

## VLGLGSGGVCGG
  protein stability index: 0.693 ± 0.023

## DREKGGLREADQ
  protein stability index: 0.669 ± 0.035

## PGSADGPATYPL
  protein stability index: 0.65 ± 0.03

## IIIVGSWSGGGG
  protein stability index: 0.663 ± 0.025

## RKRKIKQYITTT
  protein stability index: 0.725 ± 0.043

## SGWASVCARAAI
  protein stability index: 0.745 ± 0.06

## NRRVSGPLCMQE
  protein stability index: 0.687 ± 0.054

## RQAIGRDTPRDP
  protein stability index: 0.649 ± 0.0073

## GNLVKTLERDKP
  protein stability index: 0.736 ± 0.034

## CGGSARAGVVFL
  protein stability index: 0.699 ± 0.066

## SPLPSSPRSVPP
  protein stability index: 0.744 ± 0.094

## GWVFCLFPVGGL
  protein stability index: 0.607 ± 0.051

## YRERSTIKITGN
  protein stability index: 0.671 ± 0.054

## PAVCIPLPARQL
  protein stability index: 0.743 ± 0.026

## AAIARRNIFKAR
  protein stability index: 0.689 ± 0.039

## TFHCGPFRLFSC
  protein stability index: 0.6545 ± 0.0055

## LCRCVFFGLWGV
  protein stability index: 0.621 ± 0.031

## DAPLGDLRAYTT
  protein stability index: 0.747 ± 0.028

## RVRLAPAPASIR
  protein stability index: 0.7458 ± 0.0047

## QKLGNNNAKDLM
  protein stability index: 0.66 ± 0.062

## PPPPRLSLHSPP
  protein stability index: 0.713 ± 0.0085

## YYDWPGQRFSEE
  protein stability index: 0.67 ± 0.035

## RWCVGFRLCHDS
  protein stability index: 0.636 ± 0.019

## VPCCSAVDLLVS
  protein stability index: 0.5999 ± 0.0045

## VSCFVWFGFSCI
  protein stability index: 0.5202 ± 0.0034

## PPIPPALLLVSP
  protein stability index: 0.633 ± 0.0095

## TGWRGVLGLGPG
  protein stability index: 0.674 ± 0.02

## GFLPSIVPPVPR
  protein stability index: 0.753 ± 0.02

## QFMLLRWGFAIR
  protein stability index: 0.544 ± 0.024

## PPTPSSPRPMAP
  protein stability index: 0.818 ± 0.14

## FFSVCLVFGLPG
  protein stability index: 0.543 ± 0.013

## QESRRTTVEKQA
  protein stability index: 0.638 ± 0.011

## FVLLGVRGVAGW
  protein stability index: 0.709 ± 0.02

## WVKTLEKEDHVI
  protein stability index: 0.759 ± 0.21

## IDGGSAWSAVSL
  protein stability index: 0.687 ± 0.018

## AGRVRERMRVYG
  protein stability index: 0.639 ± 0.01

## GHAITSALITHR
  protein stability index: 0.652 ± 0.024

## TPRRPPATPAPC
  protein stability index: 0.653 ± 0.025

## RNKNYIDEEKER
  protein stability index: 0.661 ± 0.037

## LLWGSSPDGGQG
  protein stability index: 0.694 ± 0.019

## WPSMFFSIEESW
  protein stability index: 0.887 ± 0.042

## YQCVQNNKGRSR
  protein stability index: 0.67 ± 0.024

## SRISQSMRFPIK
  protein stability index: 0.691 ± 0.027

## LLDLCSNLLRSF
  protein stability index: 0.757 ± 0.11

## KKDMCRSSFPDC
  protein stability index: 0.686 ± 0.007

## RGVALWALYGAG
  protein stability index: 0.76502 ± 0.00052

## FPHSPPFRLPLS
  protein stability index: 0.759 ± 0.089

## VITYKKKNTRKQ
  protein stability index: 0.673 ± 0.093

## PPSLTSPRHPPT
  protein stability index: 0.669 ± 0.022

## VLCRPLLPTSRL
  protein stability index: 0.772 ± 0.02

## QKKKRTKNKNKR
  protein stability index: 0.6556 ± 0.0053

## APDLPHSTNLPR
  protein stability index: 0.741 ± 0.024

## DIIRKKNKQGRI
  protein stability index: 0.702 ± 0.035

## FGVGSITDEELD
  protein stability index: 0.735 ± 0.036

## FPPPPYPEFYPC
  protein stability index: 0.798 ± 0.077

## LFGVRFTLGYLF
  protein stability index: 0.554 ± 0.016

## GSGAFSLVSSYF
  protein stability index: 0.656 ± 0.017

## KKETRKKETKKE
  protein stability index: 0.685 ± 0.041

## VAAFGGGGTNGV
  protein stability index: 0.665 ± 0.075

## KINPQKTEWARR
  protein stability index: 0.689 ± 0.024

## SGAGGGVWWGGV
  protein stability index: 0.73 ± 0.0092

## PYQQVAESETKK
  protein stability index: 0.717 ± 0.089

## EGTPGARSQGRE
  protein stability index: 0.662 ± 0.035

## RLRRPSSGPFMF
  protein stability index: 0.685 ± 0.037

## SPPLSLPPPGQS
  protein stability index: 0.671 ± 0.073

From the supplement of paper PMC10724198
